Consider 16 molecules from patent publication US20170304437A1 (ALLIGATOR BIOSCIENCE, published 2017).

Assay [1] deals with T1, CD40-Fc (Ancell # 504-820) (human, UniProt P25942 21-193).
T1 construct: Bought reagent; also called human CD40; not shown: Fc part of the bought fusion
Put plainly: binding ELISA, CD40-Fc coated, one fixed concentration, anti-human IgG Fc-HRP. The method, then:
(§1) In short, 96-well flat bottom plate high binding plates (Greiner #655074) were coated with CD40-Fc (Ancell # 504-820) by incubating overnight at 4° C. The plates were washed (Wash buffer: PBS+0.05% Tween 20 (PBST) Medicago #09-9410-100) and then blocked in PBST+3% BSA (Merck, #1.12018.0100). The plates were washed again and samples or control (serial dilutions 1/2, starting at 0.2 ug/ml) were added to the wells.
(§2) The samples were incubated for 1 h at room temperature and then washed. Detection antibody, goat-anti-human IgG Fcγ-HRP (Jackson, #109-035-098) was added and the plates were subsequently developed using SuperSignal Pico Chemiluminescent substrate (Thermo #37069) and detected with Envision reader (Perkin Elmer). In FIG. 6A the binding of bispecific molecules at different concentrations to CD40 coated onto an ELISA plate is shown. In FIG. 6B, the binding of bispecific molecules at one fixed concentration (100 ng/ml) to CD40 coated onto an ELISA plate is shown. The bispecific molecules bind specifically to CD40.

For assay [2], the target named is T2, human CTLA4-Fc (Fitzgerald #30R-CD152) (human, UniProt P16410 38-152).
T2 construct: Bought reagent; also called biotinylated-CTLA4; human CTLA-4 (Fitzgerald); not shown: Fc part of the bought fusion
T2 sequence (P16410 38-152 limits assumed): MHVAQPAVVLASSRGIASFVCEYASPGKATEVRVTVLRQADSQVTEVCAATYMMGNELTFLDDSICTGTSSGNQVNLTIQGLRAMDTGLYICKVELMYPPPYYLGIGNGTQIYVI
Put plainly: binding ELISA, CTLA4-Fc coated, sample titrated, anti-human IgG Fc-HRP, chemiluminescence, data normalised to % [both panels]. The method, then: (§3) The plates were washed (Wash buffer: PBS+0.05% Tween 20 (PBST) Medicago #09-9410-100) and then blocked in PBST+3% BSA (Merck, #1.12018.0100). The plates were washed again and sample or controls (serially diluted 1/3 from […]) were added to the wells. The samples were incubated for 1 h at room temperature and then washed. Detection antibody, goat-anti-human IgG Fγy-HRP (Jackson, #109-035-098) was added and the plates were subsequently developed using SuperSignal Pico Chemiluminescent substrate (Thermo #37069) and detected with an Envision reader (Perkin Elmer).
For orientation: ELISA stands for enzyme-linked immunosorbent assay.

Assay [3] deals with T3, CD28-Fc (provided by Simon Davis, Oxford University) (human, UniProt P10747 19-152, limits assumed).
T3 construct: Gift reagent; not shown: Fc part
Nature of the assay: binding ELISA, coated CD28-Fc. As to the method: as §3

Assay [4] deals with T2, human CTLA4-Fc (Fitzgerald #30R-CD152). Put plainly: binding ELISA, CTLA4-Fc coated, sample titrated, anti-human IgG Fc-HRP, chemiluminescence, data normalised to % [upper panel]. As to the method:
as §3

For assay [5] the target is unchanged. Nature of the assay: binding ELISA, CTLA4-Fc coated, sample titrated, anti-human IgG Fc-HRP, chemiluminescence, data normalised to % [lower panel]. As to the method:
as §3

Assay [6] deals with T1, CD40-Fc (Ancell # 504-820). Put plainly: binding ELISA, CD40-Fc coated, sample titrated, anti-human IgG Fc-HRP, chemiluminescence. The method, then: as §1, §2
Assay [7] addresses T1, CD40-Fc (Ancell # 504-820). Nature of the assay: binding ELISA, CD40-Fc coated, one fixed concentration (100 ng/ml), anti-human IgG Fc-HRP. As to the method:
as §1, §2

T1 sequence (P25942 21-193 limits assumed): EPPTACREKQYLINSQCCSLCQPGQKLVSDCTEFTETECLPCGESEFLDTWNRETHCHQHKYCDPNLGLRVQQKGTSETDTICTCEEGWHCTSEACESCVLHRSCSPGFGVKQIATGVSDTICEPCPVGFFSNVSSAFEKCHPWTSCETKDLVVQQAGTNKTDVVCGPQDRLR

B1: isolated polypeptide of amino acid sequence SEQ ID NO: 8 (soluble CTLA-4 binding domain reference 904) (ligand)
chain: LKIQAYFNETADLPCQFANSQNQSLSELIVFWQDQENLVLNEVYLGKERFDAVDSKYMGRTSFDSDSWTLRLHNLQIKDKGIYQCIIHHKKPSGMVKIHQMDSELSVLA
notes: Control in the CD40 ELISA
With B1, the binding result in assay [1] is “no binding (tested: 100 ng/ml (not on the sheet))”.

B2: wild type human CD86 soluble extracellular domain (control in Examples 2 and 4) (ligand)
chain: APLKIQAYFNETADLPCQFANSQNQSLSELVVFWQDQENLVLNEVYLGKEKFDSVHSKYMGRTSFDSDSWTLRLHNLQIKDKGLYQCIIHHKKPTGMIRIHQMNSELSVLA
notes: probably the same Fc fusion as the clones; also called wild-type protein CD86; wild type CD86; not shown: the clones it is compared with were gamma2/gamma4 Fc fusions and detection was by anti
What is called EC50 (read off the curve) is the concentration giving half of the maximal effect. On to B2, for which, in assay [2], the “EC50 (read off the curve)” value is about 0.5 µg/mL.

B3: CD86 mutant clone 1038, gamma2/gamma4 fusion (Fc fusion)
chain: APLKIQAYFNETADLPCQFANSQNLSLSELVVFWQDQENLVLNEVYLGKEKFDSVDSKYMGRTSFDSDSWTLRLHNLQIKDKGIYQCIIHHKKPTGMVKIHEMNSELSVLA
notes: Expressed as gamma2/gamma4 fusion, protein A purified; not shown: gamma2/gamma4 Fc
B3: the binding result in assay [3] is listed as “no binding”. For the same molecule, the “EC50 (read off the curve)” value in assay [4] was about 0.1 µg/mL.

B4: CD86 mutant clone 1045, gamma2/gamma4 fusion (Fc fusion)
chain: APLKIQAYFNETADLPCQFANSQNLTLSELVVFWQDQENLVLNEVYLGKEKFDSVDSKYMGRTSFDSDSWTLRLHNLQIKDKGLYQCIIHHKKPTGLVKIHEMNSELSVLA
notes: as for B3
For B4, the binding result in assay [3] is reported as “no binding”. The “EC50 (read off the curve)” value in assay [5] is about 0.05 µg/mL.

B5: CD86 mutant clone 1044, gamma2/gamma4 fusion (Fc fusion)
chain: APLKIQAYFNETADLPCQFANSQNLTLSELVVFWQDQENLVLNEVYLGKEKFDSVSSKYMGRTSFDSDSWTLRLHNLQIKDKGIYQCIIHHKKPTGMIKIHEMSSELSVLA
notes: as for B3
For B5, the binding result in assay [3] is recorded as “no binding”. Besides, in assay [5], the “EC50 (read off the curve)” value is about 0.03 µg/mL.

B6: CD86 H79A mutant (Peach et al) control clone (ligand)
chain: APLKIQAYFNETADLPCQFANSQNQSLSELVVFWQDQENLVLNEVYLGKEKFDSVASKYMGRTSFDSDSWTLRLHNLQIKDKGLYQCIIHHKKPTGMIRIHQMNSELSVLA
notes: also called Prior Art; not shown: probably the same gamma2/gamma4 Fc fusion
Take B6: the “EC50 (read off the curve)” value in assay [2] is about 0.8 µg/mL.

B7: CD86 mutant clone 1047, gamma2/gamma4 fusion (Fc fusion)
chain: APLKIQAYFNETADLPCQFANSQNLSLSELVVFWQDQENLVLNEVYLGKEKFDSVDSKYMGRTSFDSDSWTLRLHNLQIKDKGIYQCIIHHKKPTGLVKIHEMNSELSVLA
notes: as for B3
B7: the binding result in assay [3] is “no binding”.

B8: CD86 mutant clone 1046, gamma2/gamma4 fusion (Fc fusion)
chain: APLKIQAYFNETADLPCQFANSQNQSLSELVVFWQDQENLVLNEVYLGKEKFDSVDSKYMGRTSFDSDSWTLRLHNLQIEDKGIYQCIIHHKKPSGMVKIHQMDSELSVLA
notes: as for B3
For the molecule B8, the binding result in assay [3] is reported as “no binding”. In assay [5], the “EC50 (read off the curve)” value was about 0.02 µg/mL.

B9: CD86 mutant clone 1041, gamma2/gamma4 fusion (Fc fusion)
chain: APLKIQAYLNETADLPCQFANSQNLSLSELVVFWQDQENLVLNEVYLGKEKFDSVDSKYMGRTSFDSDSWTLRLHNLQIKDKGIYQCIIHHKKPTGLVKIHEMNSELSVLA
notes: as for B3
Turning to B9, the binding result in assay [3] is recorded as “no binding”. In addition, in assay [4], the “EC50 (read off the curve)” value was about 0.09 µg/mL.

B10: CD86 mutant clone 1039, gamma2/gamma4 fusion (Fc fusion)
chain: APLKIQAYFNETADLPCQFANSQNLSLSELVVFWQDQENLVLNEVYLGKEKFDSVSSKYMGRTSFDSDSWTLRLHNLQIKDKGIYQCIIHHKKPSGMVKIHQMDSELSVLA
notes: as for B3
As to B10, in assay [3], the binding result was “no binding”. Moreover, in assay [4], the “EC50 (read off the curve)” value was about 0.04 µg/mL.

B11: CD86 mutant clone 1043, gamma2/gamma4 fusion (Fc fusion)
chain: APLKIQAYFNETADLPCQFANSQNLSLSELVVFWQDQENLVLNEVYLGKEKFDSVDSKYMGRTSFDSDSWTLRLHNLQIKDKGIYQCIIHHKKPTGMIKIHEMNSELSVLA
notes: as for B3
In the case of B11, in assay [3], the binding result is given as “no binding”. The “EC50 (read off the curve)” value in assay [5] is about 0.04 µg/mL.

B12: Bispecific polypeptide 956/530 (bispecific antibody, human IgG1, kappa)
light: QSVLTQPPSASGTPGQRVTISCSGSSSNIGSNTVNWYQQLPGTAPKLLIYRNNQRPSGVPDRFSGSKSGTSASLAISGLRSEDEADYYCAAWDDSLSGWRFGGGTKLTVLGGTVAAPSVFIFPPSDEQLKSGTASVVCLLNNFYPREAKVQWKVDNALQSGNSQESVTEQDSKDSTYSLSSTLTLSKADYEKHKVYACEVTHQGLSSPVTKSFNRGECSGGGGSGGGGSLKIQAYFNETADLPCQFANSQNQSLSELIVFWQDQENLVLNEVYLGKERFDAVDSKYMGRTSFDSDSWTLRLHNLQIKDKGIYQCIIHHKKPSGMVKIHQMDSELSVLA
heavy: not shown
As for B12, in assay [6], the binding result is listed as “binds”.

B13: Bispecific polypeptide 957/530 (bispecific antibody, human IgG1, kappa)
light: QSVLTQPPSASGTPGQRVTISCSGSSSNIGSNTVNWYQQLPGTAPKLLIYRNNQRPSGVPDRFSGSKSGTSASLAISGLRSEDEADYYCAAWDDSLSGWRFGGGTKLTVLGGTVAAPSVFIFPPSDEQLKSGTASVVCLLNNFYPREAKVQWKVDNALQSGNSQESVTEQDSKDSTYSLSSTLTLSKADYEKHKVYACEVTHQGLSSPVTKSFNRGECSGGGGSGGGGSAPLKIQAYFNETADLPCQFANSQNQSLSELIVFWQDQENLVLNEVYLGKERFDAVDSKYMGRTSFDSDSWTLRLHNLQIKDKGIYQCIIHHKKPSGMVKIHQMDSELSVLA
heavy: not shown
As for B13, in assay [6], the “EC50 (read off the curve)” value was about 0.2 µg/mL.

B14: Bispecific polypeptide 958/531 (bispecific antibody, human IgG1, kappa)
heavy: not shown
light: QSVLTQPPSASGTPGQRVTISCSGSSSNIGSNTVNWYQQLPGTAPKLLIYRNNQRPSGVPDRFSGSKSGTSASLAISGLRSEDEADYYCAAWDDSLSGWRFGGGTKLTVLGGTVAAPSVFIFPPSDEQLKSGTASVVCLLNNFYPREAKVQWKVDNALQSGNSQESVTEQDSKDSTYSLSSTLTLSKADYEKHKVYACEVTHQGLSSPVTKSFNRGEC
As to B14, the binding result in assay [7] was “binds”.

B15: Bispecific polypeptide 959/530 (bispecific antibody, human IgG1, kappa)
light: LKIQAYFNETADLPCQFANSQNQSLSELIVFWQDQENLVLNEVYLGKERFDAVDSKYMGRTSFDSDSWTLRLHNLQIKDKGIYQCIIHHKKPSGMVKIHQMDSELSVLAKRTVAQSVLTQPPSASGTPGQRVTISCSGSSSNIGSNTVNWYQQLPGTAPKLLIYRNNQRPSGVPDRFSGSKSGTSASLAISGLRSEDEADYYCAAWDDSLSGWRFGGGTKLTVLGGTVAAPSVFIFPPSDEQLKSGTASVVCLLNNFYPREAKVQWKVDNALQSGNSQESVTEQDSKDSTYSLSSTLTLSKADYEKHKVYACEVTHQGLSSPVTKSFNRGEC
heavy: not shown
Take B15: the binding result in assay [7] is “binds”.

B16: Bispecific polypeptide 960/530 (bispecific antibody, human IgG1, kappa)
light: LKIQAYFNETADLPCQFANSQNQSLSELIVFWQDQENLVLNEVYLGKERFDAVDSKYMGRTSFDSDSWTLRLHNLQIKDKGIYQCIIHHKKPSGMVKIHQMDSELSVLANFSQPQSVLTQPPSASGTPGQRVTISCSGSSSNIGSNTVNWYQQLPGTAPKLLIYRNNQRPSGVPDRFSGSKSGTSASLAISGLRSEDEADYYCAAWDDSLSGWRFGGGTKLTVLGGTVAAPSVFIFPPSDEQLKSGTASVVCLLNNFYPREAKVQWKVDNALQSGNSQESVTEQDSKDSTYSLSSTLTLSKADYEKHKVYACEVTHQGLSSPVTKSFNRGEC
heavy: not shown
In the case of B16, in assay [7], the binding result is “binds”.
